The labels stand for the following.
B1: unnamed (protein)
chain 1: QVQLVQSGAEVKKPGASVKVSCKASGYTFTSSYINWVRQAPGQGLEWMGTINPVSGSTSYAQKFQGRVTMTRDTSISTAYMELSRLRSDDTAVYYCARSWGYFDVWGQGTLVTVSS
chain 2: QSALTQPASVSGSPGQSITISCTGTSSDVGSYNYVNWYQQHPGKAPKLMIYGVSKRPSGVSNRFSGSKSGNTASLTISGLQAEDEADYYCGTFAGGSYYGVFGGGTKLTVL
B2: unnamed (protein)
chain 1: QVQLVQSGAEVKKPGASVKVSCKASGYTFTSSYINWVRQAPGQGLEWMGTINPVSGSTSYAQKFQGRVTMTRDTSISTAYMELSRLRSDDTAVYYCARGGYDDYWGQGTLVTVSS
chain 2: QSALTQPASVSGSPGQSITISCTGTSSDVGSYNYVNWYQQHPGKAPKLMIYGVSKRPSGVSNRFSGSKSGNTASLTISGLQAEDEADYYCGTFAGGSYYGVFGGGTKLTVL
B3: unnamed (protein)
chain 1: QVQLVQSGAEVKKPGASVKVSCKASGYTFTSSYINWVRQAPGQGLEWMGTINPVSGSTSYAQKFQGRVTMTRDTSISTAYMELSRLRSDDTAVYYCARLAIGDSYWGQGTLVTVSS
chain 2: QSALTQPASVSGSPGQSITISCTGTSSDVGSYNYVNWYQQHPGKAPKLMIYGVSKRPSGVSNRFSGSKSGNTASLTISGLQAEDEADYYCGTFAGGSYYGVFGGGTKLTVL
B4: unnamed (protein)
chain 1: QVQLVQSGAEVKKPGASVKVSCKASGYTFTSSYINWVRQAPGQGLEWMGTINPVSGSTSYAQKFQGRVTMTRDTSISTAYMELSRLRSDDTAVYYCARQLTLDVWGQGTLVTVSS
chain 2: QSALTQPASVSGSPGQSITISCTGTSSDVGSYNYVNWYQQHPGKAPKLMIYGVSKRPSGVSNRFSGSKSGNTASLTISGLQAEDEADYYCGTFAGGSYYGVFGGGTKLTVL
B5: unnamed (protein)
chain 1: QVQLVQSGAEVKKPGASVKVSCKASGYTFTSSYINWVRQAPGQGLEWMGTINPVSGSTSYAQKFQGRVTMTRDTSISTAYMELSRLRSDDTAVYYCARSGYFDYWGQGTLVTVSS
chain 2: QSALTQPASVSGSPGQSITISCTGTSSDVGSYNYVNWYQQHPGKAPKLMIYGVSKRPSGVSNRFSGSKSGNTASLTISGLQAEDEADYYCGTFAGGSYYGVFGGGTKLTVL
B6: unnamed (protein)
chain 1: QVQLVQSGAEVKKPGASVKVSCKASGYTFTSSYINWVRQAPGQGLEWMGTINPVSGSTSYAQKFQGRVTMTRDTSISTAYMELSRLRSDDTAVYYCARGGYNDYWGQGTLVTVSS
chain 2: QSALTQPASVSGSPGQSITISCTGTSSDVGSYNYVNWYQQHPGKAPKLMIYGVSKRPSGVSNRFSGSKSGNTASLTISGLQAEDEADYYCGTFAGGSYYGVFGGGTKLTVL
B7: unnamed (protein)
chain 1: QVQLVQSGAEVKKPGASVKVSCKASGYTFTSSYINWVRQAPGQGLEWMGTINPVSGSTSYAQKFQGRVTMTRDTSISTAYMELSRLRSDDTAVYYCARSGYADYWGQGTLVTVSS
chain 2: QSALTQPASVSGSPGQSITISCTGTSSDVGSYNYVNWYQQHPGKAPKLMIYGVSKRPSGVSNRFSGSKSGNTASLTISGLQAEDEADYYCGTFAGGSYYGVFGGGTKLTVL
B8: unnamed (protein)
chain 1: QVQLVQSGAEVKKPGASVKVSCKASGYTFTSSYINWVRQAPGQGLEWMGTINPVSGSTSYAQKFQGRVTMTRDTSISTAYMELSRLRSDDTAVYYCARSGYMDYWGQGTLVTVSS
chain 2: QSALTQPASVSGSPGQSITISCTGTSSDVGSYNYVNWYQQHPGKAPKLMIYGVSKRPSGVSNRFSGSKSGNTASLTISGLQAEDEADYYCGTFAGGSYYGVFGGGTKLTVL
B9: unnamed (protein)
chain 1: QVQLVQSGAEVKKPGASVKVSCKASGYRFTSSGINWVRQAPGQGLEWMGTINPVTGNTSYAQKFQGRVTMTRDTSISTAYMELSRLRSDDTAVYYCARGGYFDYWGQGTLVTVSS
chain 2: QSALTQPASVSGSPGQSITISCTGTSSDVGSYNYVNWYQQHPGKAPKLMIYGVSKRPSGVSNRFSGSKSGNTASLTISGLQAEDEADYYCGTFAGGSYYGVFGGGTKLTVL
B10: unnamed (protein)
chain 1: QVQLVQSGAEVKKPGASVKVSCKASGYTFTSSYINWVRQAPGQGLEWMGTINPVSGSTSYAQKFQGRVTMTRDTSISTAYMELSRLRSDDTAVYYCARGGDFDYWGQGTLVTVSS
chain 2: QSALTQPASVSGSPGQSITISCTGTSSDVGSYNYVNWYQQHPGKAPKLMIYGVSKRPSGVSNRFSGSKSGNTASLTISGLQAEDEADYYCGTFAGGSYYGVFGGGTKLTVL
B11: unnamed (protein)
chain 1: QVQLVQSGAEVKKPGASVKVSCKASGYTFTSSYINWVRQAPGQGLEWMGTINPVSGSTSYAQKFQGRVTMTRDTSISTAYMELSRLRSDDTAVYYCARNGYADYWGQGTLVTVSS
chain 2: QSALTQPASVSGSPGQSITISCTGTSSDVGSYNYVNWYQQHPGKAPKLMIYGVSKRPSGVSNRFSGSKSGNTASLTISGLQAEDEADYYCGTFAGGSYYGVFGGGTKLTVL
B12: unnamed (protein)
chain 1: QVQLVQSGAEVKKPGASVKVSCKASGYTFTSSHINWVRQAPGQGLEWMGTINPVTGNTSYAQKFQGRVTMTRDTSISTAYMELSRLRSDDTAVYYCARGGYFDYWGQGTLVTVSS
chain 2: QSALTQPASVSGSPGQSITISCTGTSSDVGSYNYVNWYQQHPGKAPKLMIYGVSKRPSGVSNRFSGSKSGNTASLTISGLQAEDEADYYCGTFAGGSYYGVFGGGTKLTVL
B13: unnamed (protein)
chain 1: QVQLVQSGAEVKKPGASVKVSCKASGYTFTSTGINWVRQAPGQGLEWMGTINPVTGGTSYAQKFQGRVTMTRDTSISTAYMELSRLRSDDTAVYYCARGGYFDYWGQGTLVTVSS
chain 2: QSALTQPASVSGSPGQSITISCTGTSSDVGSYNYVNWYQQHPGKAPKLMIYGVSKRPSGVSNRFSGSKSGNTASLTISGLQAEDEADYYCGTFAGGSYYGVFGGGTKLTVL
B14: unnamed (protein)
chain 1: QVQLVQSGAEVKKPGASVKVSCKASGYTFTSSYINWVRQAPGQGLEWMGTINPVSGSTSYAQKFQGRVTMTRDTSISTAYMELSRLRSDDTAVYYCARGGYADYWGQGTLVTVSS
chain 2: QSALTQPASVSGSPGQSITISCTGTSSDVGSYNYVNWYQQHPGKAPKLMIYGVSKRPSGVSNRFSGSKSGNTASLTISGLQAEDEADYYCGTFAGGSYYGVFGGGTKLTVL
B15: unnamed (protein)
chain 1: QVQLVQSGAEVKKPGASVKVSCKASGYTFTSSYINWVRQAPGQGLEWMGTINPVSGSTSYAQKFQGRVTMTRDTSISTAYMELSRLRSDDTAVYYCARGGYTDYWGQGTLVTVSS
chain 2: QSALTQPASVSGSPGQSITISCTGTSSDVGSYNYVNWYQQHPGKAPKLMIYGVSKRPSGVSNRFSGSKSGNTASLTISGLQAEDEADYYCGTFAGGSYYGVFGGGTKLTVL
B16: unnamed (protein)
chain 1: QVQLVQSGAEVKKPGASVKVSCKASGYTFTSSYINWVRQAPGQGLEWMGTINPVSGSTSYAQKFQGRVTMTRDTSISTAYMELSRLRSDDTAVYYCARGGDMDYWGQGTLVTVSS
chain 2: QSALTQPASVSGSPGQSITISCTGTSSDVGSYNYVNWYQQHPGKAPKLMIYGVSKRPSGVSNRFSGSKSGNTASLTISGLQAEDEADYYCGTFAGGSYYGVFGGGTKLTVL
B17: unnamed (protein)
chain 1: QVQLVQSGAEVKKPGASVKVSCKASGYTFTSSYINWVRQAPGQGLEWMGTINPVSGSTSYAQKFQGRVTMTRDTSISTAYMELSRLRSDDTAVYYCARGGYFDVWGQGTLVTVSS
chain 2: QSALTQPASVSGSPGQSITISCTGTSSDVGSYNYVNWYQQHPGKAPKLMIYGVSKRPSGVSNRFSGSKSGNTASLTISGLQAEDEADYYCGTFAGGSYYGVFGGGTKLTVL
B18: unnamed (protein)
chain 1: QVQLVQSGAEVKKPGASVKVSCKASGYTFTSSYINWVRQAPGQGLEWMGTINPVSGSTSYAQKFQGRVTMTRDTSISTAYMELSRLRSDDTAVYYCARGGEFDYWGQGTLVTVSS
chain 2: QSALTQPASVSGSPGQSITISCTGTSSDVGSYNYVNWYQQHPGKAPKLMIYGVSKRPSGVSNRFSGSKSGNTASLTISGLQAEDEADYYCGTFAGGSYYGVFGGGTKLTVL
B19: unnamed (protein)
chain 1: QVQLVQSGAEVKKPGASVKVSCKASGYTFTSSYINWVRQAPGQGLEWMGTINPVSGSTSYAQKFQGRVTMTRDTSISTAYMELSRLRSDDTAVYYCARGGYVDYWGQGTLVTVSS
chain 2: QSALTQPASVSGSPGQSITISCTGTSSDVGSYNYVNWYQQHPGKAPKLMIYGVSKRPSGVSNRFSGSKSGNTASLTISGLQAEDEADYYCGTFAGGSYYGVFGGGTKLTVL

The term Kd denotes a measure of binding affinity in units of concentration. Low values mean a tighter complex, high ones a looser complex.

Sequence of ACVR2B, Q13705 (Q13705 whole entry, looked up): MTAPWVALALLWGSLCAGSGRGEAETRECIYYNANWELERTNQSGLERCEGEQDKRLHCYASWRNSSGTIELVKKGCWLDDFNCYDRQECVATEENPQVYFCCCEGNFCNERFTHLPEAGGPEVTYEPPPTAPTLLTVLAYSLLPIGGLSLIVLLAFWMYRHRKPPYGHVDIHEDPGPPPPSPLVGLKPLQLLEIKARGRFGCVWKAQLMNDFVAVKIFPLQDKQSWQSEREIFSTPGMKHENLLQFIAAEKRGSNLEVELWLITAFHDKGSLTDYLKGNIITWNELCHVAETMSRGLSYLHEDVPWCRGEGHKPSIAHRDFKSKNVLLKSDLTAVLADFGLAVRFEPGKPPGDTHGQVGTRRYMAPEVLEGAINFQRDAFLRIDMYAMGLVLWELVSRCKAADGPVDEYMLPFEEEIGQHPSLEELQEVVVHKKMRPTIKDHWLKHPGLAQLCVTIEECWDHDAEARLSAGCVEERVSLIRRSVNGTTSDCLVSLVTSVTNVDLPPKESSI

The assay has as its target ACVR2B, Q13705. As to the kind of experiment: Kd (SPR).
On to B1, for which the Kd stood at 106 nM. In other words, the sub-micromolar range. Under B2 stands 42.6 nM; under B3, 111 nM; under B4, 210 nM. Under B5 stands 9.19 nM; under B6, 101 nM; under B7, 41.9 nM. Under B8 stands 6.37 nM; under B9, 292 nM.

B10 showed a dissociation constant Kd of 123 nM.

In turn, B11 came in with a Kd of 337 nM. Under B12 stands 162 nM. Under B13 stands 234 nM. As for B14, the figure is 76.7 nM; as for B15, 101 nM; as for B16, 162 nM. B17 yielded a Kd of 26.2 nM.

B18 had a dissociation constant (Kd) of 704 nM. In the case of B19, the Kd was 153 nM.

The values are drawn from the FLAb antibody collection (doi:10.1101/2023.12.08.570889).
